Test results published in publication PMC4347646 (The Journal of Cell Biology, 2015).

Biological target: T1, Rab13 Q67L (in the Rab13 biosensor) (human, UniProt P51153 1-203, Q67L)
T1 sequence: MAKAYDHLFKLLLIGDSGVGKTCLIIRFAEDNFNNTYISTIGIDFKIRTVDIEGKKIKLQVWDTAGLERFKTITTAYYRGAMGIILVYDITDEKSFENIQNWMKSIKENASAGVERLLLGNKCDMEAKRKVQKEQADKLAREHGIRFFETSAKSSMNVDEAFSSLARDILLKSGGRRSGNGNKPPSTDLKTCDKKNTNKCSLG
Assay: FRET or BRET

B1: RBD of MICAL-L2 (in the Rab13 biosensor) (domain or fragment)
chain: not shown
- FRET/mCer ratio, higher than in the Rab13 T22N biosensor: 53%
